Patent US20160137714A1 (Thrasos Innovation, Inc., priority 2014, published 2016)
Positions of bridges follow the written chain, without caps; N, C: chain ends. Non-standard residues stand in square brackets, D forms with d. Residues, ends and D or L forms follow the SMILES beside them. No end group written: not given here. *: point of attachment. Hydrocinnamoyl = O=C(CCc1ccccc1)*; Pyrazinecarbonyl = O=C(c1cnccn1)*; dNMeR = CN[C@H](CCCNC(=N)N)C(=O)O

Tests used:
Ex-vivo plasma stability = format: in vitro ADME, mouse or rat
Protocol: Test article is added to fresh mouse or rat plasma at a final in-vial concentration of 1 μM. The peptide is incubated in a water bath at 37° C. over a time course that included the following points (in minutes): 0, 15, 30, 60, 120, 240, and 1440. After the incubation time is completed, a 50 μL aliquot of plasma is removed and proteins are precipitated using a solution containing internal standard (THR-123 at 150 ng/mL) in methanol with 0.5% acetic acid (v/v). The samples are centrifuged at 13,000 RPM for 5 minutes, and a 100 μL aliquot of supernatant is removed and transferred to a 96-well plate containing 200 μL of reconstitution solution (Water/MeOH/Acetic Acid/TFA, 60/40/0.2/0.05, v/v/v/v). A calibration curve and quality control (QC) samples are prepared in parallel in the same manner as the incubation samples. The calibration range for this assay is from 0.02 to 2.0 μM in rat or mouse plasma. The extracted calibrants, QC, and incubation samples are injected onto an AB SCIEX API 2000 LC-MS/MS system. Chromatographic separation is performed using a reversed-phase C18 HPLC column (Ace-3 C18, 30×2.1 mm, 3 μm). The solvent system consists of Milli-Q water, acetonitrile and formic acid. Analyte and internal standard are detected using the multiple reaction monitoring (MRM) scan mode. Calibration curves are generated by using a weighted (1/concentration) quadratic regression analysis of the peak area ratios (analyte/internal standard) versus the nominal concentration of the calibration standards. The concentration of the analyte in the incubation samples is determined by back-calculating the peak area ratios obtained using the quadratic regression.

[1] = Pharmacokinetic studies of THR-123 and GPR-294 i.v. and s.c. (FIG. 13, FIGS. 5-8); format: in vivo
Protocol: A stock solution of THR-123 was prepared at 250 μg/mL in DMSO. This solution was quantitatively added to blank mouse plasma to generate a calibration curve. The linear range was from 0.25 to 250 ng/mL. A 175 μL aliquot of plasma from removed from each calibrant tube and processed using solid phase extraction (SPE). Study samples were first diluted with blank control mouse plasma, and 175 μL was aliquoted for processing using SPE. An internal standard working solution (ISWS) was added to each calibrant and study sample (GPR-227 at 100 ng/mL in water). Plasma proteins were precipitated with 175 μL of methanol with 0.5% acetic acid (v/v). After centrifugation at 14,800 RPM for 10 minutes, a 300 μL aliquot of supernatant was diluted in water with 4% phosphoric acid (v/v). The entire diluted sample was extracted by SPE using a Waters Oasis HLB 96-well μElution plate. Samples were washed twice using a solution of acidified water (0.1% TFA, v/v) and 15% MeOH in water (v/v). Purified extracts were eluted into a 96-well collection plate using 40 μL of elution solvent. Standards and study samples were injected onto a Thermo Q-exactive LC-MS/MS system. Chromatographic separation was performed using a reversed-phase C18 HPLC column (Waters CSH C18, 50×2.1 mm, 2.5 μm). Analyte and internal standard were detected using the targeted selected ion monitoring (tSIM) scan mode. Calibration curves were generated by using a weighted (1/concentration^2) linear regression of the peak area ratios (analyte/internal standard) versus the nominal concentration of the calibration standards. The concentration of the analyte in the study samples was determined by back-calculating the peak area ratios obtained using the linear regression and applying the appropriate dilution factors.
The study described herein involved single (mouse) or multiple (rat) blood collections after test article administration. Test articles are given by oral (PO), intravenous (IV), subcutaneous (SC) or intraperitoneal (IP) routes. All animals have a five day acclimatization period before dosing. Body weights are recorded prior to dosing. […]

FIGURE 31 (1/2) = experiment: FIGURE 31 (1/2)
Protocol: Table printed on a drawing sheet, FIGURE 31 (1/2)
Peptide to internal standard peak area ratios were used calculate percentage remaining peptide at 60 minutes and 120 minutes. Peptides are identified by GPR number (GPR#) and SEQ ID NO.
First reader's note: First of two sheets of FIGURE 31; the table continues on sheet 2/2, and the meaning of the asterisks is not printed on this sheet.

## CC(C)C[C@@H]1NC(=O)[C@H](C(C)C)NC(=O)[C@H](CC(N)=O)NC(=O)[C@H](CO)NC(=O)[C@H](CO)NC(=O)[C@H](CC(=O)O)NC(=O)[C@H](CC(=O)O)NC(=O)[C@H](Cc2ccccc2)NC(=O)[C@H](Cc2ccc(O)cc2)NC(=O)[C@@H](N)CSSC[C@@H](C(=O)N[C@@H](CCCCN)C(=O)N[C@@H](CCCCN)C(=O)N[C@H](Cc2ccc(O)cc2)C(=O)N[C@@H](CCCNC(=N)N)C(=O)N[C@@H](CO)C(=O)O)NC1=O [GPR-294, Cys-Tyr-Phe-Asp-Asp-Ser-Ser-Asn-Val-Leu-Cys-Lys-Lys-D-tyr-Arg-Ser] (H-CYFDDSSNVLCKK[dY]RS-OH; disulfide 1-11)
Ex-vivo plasma stability; fresh plasma 37° C., 1 μM, 60 min, read-out: Percent remaining 60 min
  remaining at 1 h: 72.6%
Ex-vivo plasma stability; fresh plasma 37° C., 1 μM, 120 min, read-out: Percent remaining 120 min
  remaining at 2 h: 67.9%
Ex-vivo plasma stability; versus THR-123, rat plasma (FIGS. 3 and 4)
  stability toward plasma proteolytic cleavage: enhanced
[1]; by either route of administration (i.v., s.c.)
  plasma half-life compared with THR-123: much longer plasma half-life than the non-stabilized THR-123
[1]; in vivo, s.c. versus i.v., FIG. 13, read-out: bioavailable by sub-cutaneous administration
  bioavailability: 100%

## CC(C)C[C@@H]1NC(=O)[C@H](C(C)C)NC(=O)[C@H](CC(N)=O)NC(=O)[C@H](CO)NC(=O)[C@H](CO)NC(=O)[C@H](CC(=O)O)NC(=O)[C@H](CC(=O)O)NC(=O)[C@H](Cc2ccccc2)NC(=O)[C@H](Cc2ccc(O)cc2)NC(=O)[C@@H](NC(=O)CCc2ccccc2)CSSC[C@@H](C(=O)N[C@@H](CCCCN)C(=O)N[C@@H](CCCCN)C(=O)N[C@@H](Cc2ccc(O)cc2)C(=O)N[C@@H](CCCNC(=N)N)C(=O)N[C@@H](CO)C(=O)O)NC1=O [SEQ ID NO:31, [N-terminal: Phenyl-CH2-CH2-CO-]Cys-Tyr-Phe-Asp-Asp-Ser-Ser-Asn-Val-Leu-Cys-Lys-Lys-Tyr-Arg-Ser] (Hydrocinnamoyl-CYFDDSSNVLCKKYRS-OH; disulfide 1-11)
FIGURE 31 (1/2)
  % Remaining at 60 and 120 minutes | 60: 26.6%
  % Remaining at 60 and 120 minutes | 120: 11.8%

## CC(C)C[C@@H]1NC(=O)[C@H](C(C)C)NC(=O)[C@H](CC(N)=O)NC(=O)[C@H](CO)NC(=O)[C@H](CO)NC(=O)[C@H](CC(=O)O)NC(=O)[C@H](CC(=O)O)NC(=O)[C@H](Cc2ccccc2)NC(=O)[C@H](Cc2ccc(O)cc2)NC(=O)[C@@H](NC(=O)CCc2ccccc2)CSSC[C@@H](C(=O)N[C@@H](CCCCN)C(=O)N[C@@H](CCCCN)C(=O)N[C@H](Cc2ccc(O)cc2)C(=O)N[C@@H](CCCNC(=N)N)C(=O)N[C@@H](CO)C(=O)O)NC1=O [SEQ ID NO:32, [N-terminal: Phenyl-CH2-CH2-CO-]Cys-Tyr-Phe-Asp-Asp-Ser-Ser-Asn-Val-Leu-Cys-Lys-Lys-(D)Tyr-Arg-Ser] (Hydrocinnamoyl-CYFDDSSNVLCKK[dY]RS-OH; disulfide 1-11)
FIGURE 31 (1/2)
  % Remaining at 60 and 120 minutes | 60: 82.0%
  % Remaining at 60 and 120 minutes | 120: 91.0%

## CYFDDSSNVKCKK[dA]RS (cysteine pairing not given here) [SEQ ID NO:28]
FIGURE 31 (1/2)
  % Remaining at 60 and 120 minutes | 60: 75.3%
  % Remaining at 60 and 120 minutes | 120: 90.2%

## Cys-Tyr-Phe-Asp-Asp-Asn-Ser-Asn-Val-Leu-Cys-Arg-Lys-Tyr-(Me)(D)Arg-Ser (CYFDDNSNVLCRKY[dNMeR]S-OH; disulfide 1-11 (inferred)) [SEQ ID NO:38]
FIGURE 31 (1/2)
  % Remaining at 60 and 120 minutes | 60: 90.4%
  % Remaining at 60 and 120 minutes | 120: 84.2%

## Cys-Tyr-Phe-Asp-Asp-Ser-Ser-Asn-Ala-Leu-Cys-Lys-Lys-Tyr-(Me)(D)Arg-Ser (CYFDDSSNALCKKY[dNMeR]S-OH; disulfide 1-11 (inferred)) [SEQ ID NO:42]
FIGURE 31 (1/2)
  % Remaining at 60 and 120 minutes | 60: 100.0%
  % Remaining at 60 and 120 minutes | 120: 94.0%

## Cys-Tyr-Phe-Asp-Asp-Ser-Ser-Asn-Thr-Leu-Cys-Lys-Lys-Tyr-(Me)(D)Arg-Ser (CYFDDSSNTLCKKY[dNMeR]S-OH; disulfide 1-11 (inferred)) [SEQ ID NO:40]
FIGURE 31 (1/2)
  % Remaining at 60 and 120 minutes | 60: 106.0%
  % Remaining at 60 and 120 minutes | 120: 99.2%

## Cys-Tyr-Phe-Nal-Asp-Ser-Ser-Asn-Val-Leu-Cys-Lys-Lys-(D)Tyr-Arg-Ser (CYF[Nal]DSSNVLCKK[dY]RS-OH; disulfide 1-11 (inferred)) [SEQ ID NO:48]
FIGURE 31 (1/2)
  % Remaining at 60 and 120 minutes | 60: 93.33%
  % Remaining at 60 and 120 minutes | 120: 97.49%

## Cys-Tyr-Phe-Nal-Asp-Ser-Ser-Asn-Val-Leu-Cys-Lys-Lys-Tyr-Arg-Ser (CYF[Nal]DSSNVLCKKYRS-OH; disulfide 1-11 (inferred)) [SEQ ID NO:47]
FIGURE 31 (1/2)
  % Remaining at 60 and 120 minutes | 60: 9.0%
  % Remaining at 60 and 120 minutes | 120: 8.2%

## Cys-Tyr-Tyr-Phe-Ser-Ser-Ser-Phe-Val-Leu-Cys-Lys-Arg-Tyr-(Me)(D)Arg-Ser (CYYFSSSFVLCKRY[dNMeR]S-OH; disulfide 1-11 (inferred)) [SEQ ID NO:44]
FIGURE 31 (1/2)
  % Remaining at 60 and 120 minutes | 60: 74.3%
  % Remaining at 60 and 120 minutes | 120: 57.5%

## [N-terminal: Pirazinyl-CO-]Cys-Tyr-Phe-Asp-Asp-Ser-Ser-Asn-Val-Leu-Cys-Lys-Lys-(D)Tyr-Arg-Ser (Pyrazinecarbonyl-CYFDDSSNVLCKK[dY]RS-OH; disulfide 1-11 (inferred)) [SEQ ID NO:34]
FIGURE 31 (1/2)
  % Remaining at 60 and 120 minutes | 60: 66.2%
  % Remaining at 60 and 120 minutes | 120: 78.7%

## [N-terminal: Pirazinyl-CO-]Cys-Tyr-Phe-Asp-Asp-Ser-Ser-Asn-Val-Leu-Cys-Lys-Lys-Tyr-Arg-Ser (Pyrazinecarbonyl-CYFDDSSNVLCKKYRS-OH; disulfide 1-11 (inferred)) [SEQ ID NO:33]
FIGURE 31 (1/2)
  % Remaining at 60 and 120 minutes | 60: 44.3%
  % Remaining at 60 and 120 minutes | 120: 23.6%
